Experiment [1] addresses human β2-adrenergic receptor (ADRB2) in nanodiscs, GRK2-phosphorylated, DNA barcoded (human) (UniProt P07550). Put plainly: polony co-localization at varied β-arr2 concentrations; reference is ADRB2 without GRK2-mediated phosphorylation.
The target is the same in experiment [2]. In words: polony co-localization, β-arr2 titration on isoproterenol-saturated phosphorylated ADRB2, one-site-specific fit.

In general, Kd refers to the concentration at which binding is half-saturated. Read a low Kd as tighter binding. As to “β-arr2-TolA-HaloTag (β-arrestin-2, DNA barcoded) (from UniProt P19934 131-225)”, the fold increase of the average co-localization ratios after the phosphorylation in experiment [1] lay within 3 to 11 fold. The Kd in experiment [2] worked out at 0.95 nM.
